# Experimental data published in doi:10.1101/2023.07.18.549521.
# Molecular target: LC3B LIR docking site (LDS) mutant (F52A/L53A) (UniProt Q9GZQ8)
# Assay: ITC
substance,measurement,value
tepsin LIR motif peptide (residues 185-193),Kd,> 300 µM
